Test results as given in patent US20040152079A1 (Scripps Research, published 2004).

B1: human mini TyrRS (ligand)
chain: MGDAPSPEEKLHLITRNLQEVLGEEKLKEILKERELKIYWGTATTGKPHVAYFVPMSKIADFLKAGCEVTILFADLHAYLDNMKAPWELLELRVSYYENVIKAMLESIGVPLEKLKFIKGTDYQLSKEYTLDVYRLSSVVTQHDSKKAGAEVVKQVEHPLLSGLLYPGLQALDEEYLKVDAQFGGIDQRKIFTFAEKYLPALGYSKRVHLMNPMVPGLTGSKMSSSEEESKIDLLDRKEDVKKKLKKAFCEPGNVENNGVLSFIKHVLFPLKSEFVILRDEKWGGNKTYTAYVDLEKDFAAEVVHPGDLKNSVEVALNKLLDPIREKFNTPALKKLASAAYPDPSKQKPMAKGPAKNSEPEEVILEHHHHHH
modifications: Radioiodinated (125I) where used as the labelled ligand; iodinated residues not stated. Runs as a homodimer on gel filtration.
notes: Recombinant, made in E. coli

How the values were obtained:
human mini TyrRS = biological target: B1; assay: radioligand binding (Scatchard) to RBL2H3 cells transfected with the type A IL-8 receptor
Method: Following incubation, cells were separated from unbound radioactivity as described herein.
Untransfected RBL2H3 cells express neither the type A nor type B receptors.

[1] = biological target: PMN receptor for mini TyrRS (on human PMNs) (human); assay: Scatchard analysis of ^125I-mini TyrRS binding to human PMNs at 4 C
Excerpt: The supernatant was aspirated, and the cell sediment was resuspended using EcoLite (ICN Biomedicals, Irvine, Calif.) and analyzed in a scintillation counter.

Kd (human mini TyrRS) [nM]	Kd [1] [nM]	Binder
8		type A IL-8 receptor (receptor, UniProt P25024 1-350, looked up, whole, on cells; also called IL-8 receptor type A; CXCR1) MSNITDPQMWDFDDLNFTGMPPADEDYSPCMLETETLNKYVVIIAYALVFLLSLLGNSLVMLVILYSRVGRSVTDVYLLNLALADLLFALTLPIWAASKVNGWIFGTFLCKVVSLLKEVNFYSGILLLACISVDRYLAIVHATRTLTQKRHLVKFVCLGCWGLSMNLSLPFFLFRQAYHPNNSSPVCYEVLGNDTAKWRMVLRILPHTFGFIVPLFVMLFCYGFTLRTLFKAHMGQKHRAMRVIFAVVLIFLLCWLPYNLVLLADTLMRTQVIQESCERRNNIGRALDATEILGFLHSCLNPIIYAFIGQNFRHGFLKILAMHGLVSKEFLARHRVTSYTSSSVNVSSNL
	21	B1
